Reference: article PMC10611974

Molecular target: APOBEC3B (A3B) C-terminal domain (ctd)-Cas9n-Ugi (human | S. pyogenes | not stated)

B1: Epstein-Barr virus ribonucleotide reductase large subunit, BORF2 (natural protein)
chain: MATTSHVEHELLSKLIDELKVKANSDPEADVLAGRLLHRLKAESVTHTVAEYLEVFSDKFYDEEFFQMHRDELETRVSAFAQSPAYERIVSSGYLSALRYYDTYLYVGRSGKQESVQHFYMRLAGFCASTTCLYAGLRAALQRARPEIESDMEVFDYYFEHLTSQTVCCSTPFMRFAGVENSTLASCILTTPDLSSEWDVTQALYRHLGRYLFQRAGVGVGVTGAGQDGKHISLLMRMINSHVEYHNYGCKRPVSVAAYMEPWHSQIFKFLETKLPENHERCPGIFTGLFVPELFFKLFRDTPWSDWYLFDPKDAGDLERLYGEEFEREYYRLVTAGKFCGRVSIKSLMFSIVNCAVKAGSPFILLKEACNAHFWRDLQGEAMNAANLCAEVLQPSRKSVATCNLANICLPRCLVNAPLAVRAQRADTQGDELLLALPRLSVTLPGEGAVGDGFSLARLRDATQCATFVVACSILQGSPTYDSRDMASMGLGVQGLADVFADLGWQYTDPPSRSLNKEIFEHMYFTALCTSSLIGLHTRKIFPGFKQSKYAGGWFHWHDWAGTDLSIPREIWSRLSERIVRDGLFNSQFIALMPTSGCAQVTGCSDAFYPFYANASTKVTNKEEALRPNRSFWRHVRLDDREALNLVGGRVSCLPEALRQRYLRFQTAFDYNQEDLIQMSRDRAPFVDQSQSHSLFLREEDAARASTLANLLVRSYELGLKTIMYYCRIEKAADLGVMECKASAALSVPREEQNERSPAEQMPPRPMEPAQVAGPVDIMSKGPGEGPGGWCVPGGLEVCYKYRQLFSEDDLLETDGFTERACESCQ
- inhibition of A3Bctd CBE editing of the chromosomally integrated TC reporter (eGFP) in 293T cells, flow cytometry, 72 h post-transfection: 4.9 fold
